Substitutions are numbered along the chain they refer to.
T1: hp75NTR-His (human, UniProt P08138 29-250)
T1 construct: extracellular domain; Immobilised on a CM5 chip by amine coupling; also called human p75NTR
T1 sequence (looked up): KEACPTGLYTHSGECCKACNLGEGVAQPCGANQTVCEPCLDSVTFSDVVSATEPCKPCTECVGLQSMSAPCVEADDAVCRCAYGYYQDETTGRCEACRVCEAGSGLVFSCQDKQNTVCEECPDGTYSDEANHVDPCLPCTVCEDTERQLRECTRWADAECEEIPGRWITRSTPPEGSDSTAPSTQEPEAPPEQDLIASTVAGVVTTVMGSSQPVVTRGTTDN

B1: anti-TrkA antibody Ab82, full length (antibody, V domains shown)
VH: QVQLQESGPGLVKPSGTLSLTCAVSGGSISSSNWWTWVRQPPGKGLEWIGEIYHRGNRNYNPSLKSRVTISVDKSKNQFSLKLSSVTAADTAVYYCARAPWFDYWGQGTLVTVSS
VL: SSELTQDPAVSVALGQTVRITCQGDALRSYYASWYQQKPGQAPVLVIYGKGNRPSGIPDRFSGSSSGNTASLTITGAQAEDEADYYCASQASSGNHLIFGGGTKLTVLG
notes: also called full length Ab82; full-length antibody
B2: anti-TrkA antibody Ab49 (antibody, V domains shown)
VH: EVQLQESGPGLVKPSGTLSLTCAVSGGSISSSNWWTWVRQPPGKGLEWIGEIYHRGNRNYNPSLKSRVTISVDKSKNQFSLKLSSVTAADTAVYYCARAPWFDYWGQGTLV
VL: SSELTQDPAVSVALGQTVRITCQGDSLRSYYASWYQQKPGQAPVLVIYGKNNRPSGIPDRFSGSSSGNTASLTITGAQAEDEADYYCASQASSGNHLIFGGGTKLT
B3: anti-TrkA antibody Ab96 (antibody, V domains shown)
VH: B2 VH
VL: B2 VL with D25G, N52K, A88N
B4: anti-TrkA antibody Ab124 (antibody, V domains shown)
VH: B2 VH
VL: B2 VL with D25A, N51G, A88N, A91D
B5: anti-TrkA antibody Ab142 (antibody, V domains shown)
VH: B2 VH
VL: B2 VL with D25L, N52K, A88N
B6: anti-TrkA antibody Ab101 (antibody, V domains shown)
VH: B2 VH
VL: B2 VL with D25G, N51G, A88N, A91D
B7: anti-TrkA antibody Ab76 (antibody, V domains shown)
VH: B2 VH
VL: B2 VL with S26A, N52K
B8: anti-TrkA antibody Ab79 (antibody, V domains shown)
VH: B2 VH
VL: B2 VL with S26A, N51G, A88N
B9: anti-TrkA antibody Ab70 (antibody, V domains shown)
VH: B2 VH
VL: B2 VL with S26A
B10: anti-TrkA antibody Ab145 (antibody, V domains shown)
VH: B2 VH
VL: B2 VL with D25L, N52K
B11: anti-TrkA antibody Ab82 (as in Tables 4 and 6) (antibody, V domains shown)
VH: B2 VH with E1Q
VL: B2 VL with S26A, N51G
B12: anti-TrkA antibody Ab119 (antibody, V domains shown)
VH: B2 VH
VL: B2 VL with D25A, N52K, A88N
B13: anti-TrkA antibody Ab147 (antibody, V domains shown)
VH: B2 VH
VL: B2 VL with D25L, N51G, A88N, A91D
B14: anti-TrkA antibody Ab67 (antibody, V domains shown)
VH: B2 VH
VL: B2 VL with S26A, A88N
B15: anti-TrkA antibody Ab122 (antibody, V domains shown)
VH: B2 VH
VL: B2 VL with D25A, N52K
B16: anti-TrkA antibody Ab386 (antibody, V domains shown)
VH: B2 VH with E1Q
VL: B1 VL with A26S, G51N, A88N, A91D
B17: anti-TrkA antibody Ab476 (antibody, V domains shown)
VH: B2 VH with E1Q, W101F, Y104R
VL: B1 VL with A26S, Y48H, G51N, A88N, A91D
B18: anti-TrkA antibody Ab449 (antibody, V domains shown)
VH: B2 VH with E1Q, Y104R
VL: B1 VL with A26S, G51N, A88N, A91D
B19: anti-TrkA antibody Ab523 (antibody, V domains shown)
VH: B2 VH with E1Q, I29V, S32G, S84N, Y95F, W101F
VL: B1 VL with A26S, G51N, G67W, A88N, A91D
B20: anti-TrkA antibody Ab676 (antibody, V domains shown)
VH: B2 VH with E1Q, I29V, S32G, R58T, S84N, Y95F, W101F
VL: B1 VL with A26S, Y48H, G51N, A88N, A91V, S92Y, S93G
B21: anti-TrkA antibody Ab3 (antibody, V domains shown)
VH: B2 VH with E1Q, I29V, S32G, R58T, S84N, Y95F, W101F
VL: B1 VL with A26S, Y48F, G51N, A88N, A91V, S93G

These molecules were tested against T2, hTrkC-ECD-His (human, UniProt Q16288 32-429) (assay: SPR, target amine-coupled on CM5 chip, 25 C, pH 7.4).
T2 construct: extracellular domain; Immobilised on a CM5 chip by amine coupling; also called human TrkC
B1: no binding (tested: 1 nM).

The molecules below were run against T1, hp75NTR-His in the same assay as above.
B1: no binding (tested: 1 nM).

These molecules were tested against T3, hTrkB-Extracellular Domain-poly C-terminal Histidine tagged (human, UniProt Q16620 32-430) in the same assay as above.
T3 construct: extracellular domain; Immobilised on a CM5 chip by amine coupling; also called hTrkB-ECD-His; human TrkB
T3 sequence (Q16620 32-430): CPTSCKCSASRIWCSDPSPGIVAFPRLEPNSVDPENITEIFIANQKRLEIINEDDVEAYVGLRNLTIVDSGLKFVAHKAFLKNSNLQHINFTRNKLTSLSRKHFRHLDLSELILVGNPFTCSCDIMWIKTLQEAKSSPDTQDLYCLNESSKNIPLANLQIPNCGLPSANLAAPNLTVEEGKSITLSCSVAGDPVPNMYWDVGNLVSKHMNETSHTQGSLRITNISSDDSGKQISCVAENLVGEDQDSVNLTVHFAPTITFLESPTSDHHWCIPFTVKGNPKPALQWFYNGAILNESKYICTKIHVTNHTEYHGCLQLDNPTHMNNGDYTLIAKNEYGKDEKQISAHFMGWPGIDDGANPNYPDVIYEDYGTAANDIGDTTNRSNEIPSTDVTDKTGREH
B1: no binding (tested: 1 nM).

These molecules were tested against T4, recombinant human TrkA (human, UniProt P04629 33-423, limits assumed) (assay: SPR, antibody captured on protein A chip, TrkA as analyte, single concentration, 1:1 model).
T4 construct: also called hTrkA
T4 sequence (P04629 33-423 limits assumed): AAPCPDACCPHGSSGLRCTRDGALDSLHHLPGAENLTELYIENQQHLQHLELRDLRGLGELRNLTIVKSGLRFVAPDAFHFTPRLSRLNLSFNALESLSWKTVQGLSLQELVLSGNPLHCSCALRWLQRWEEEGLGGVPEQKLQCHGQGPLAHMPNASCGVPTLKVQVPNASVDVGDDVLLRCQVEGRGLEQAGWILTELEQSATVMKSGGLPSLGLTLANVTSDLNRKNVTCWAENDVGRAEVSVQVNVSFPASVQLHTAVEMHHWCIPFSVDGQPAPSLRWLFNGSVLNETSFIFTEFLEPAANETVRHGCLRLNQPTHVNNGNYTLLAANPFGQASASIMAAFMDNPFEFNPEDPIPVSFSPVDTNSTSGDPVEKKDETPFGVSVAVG
Molecule B2 has a Kd of 1.78 nM, a koff of 0.000472 s⁻¹ and a kon of 264000 M⁻¹ s⁻¹. With B3 the Kd was 1.23 nM and the koff was 0.000277 s⁻¹. With B4 the Kd was 1.21 nM, the koff was 0.000327 s⁻¹ and the kon was 271000 M⁻¹ s⁻¹. Work on B5 yielded a Kd of 0.999 nM and a koff of 0.000254 s⁻¹. With B6 the Kd was 1.29 nM, the koff was 0.000352 s⁻¹ and the kon was 273000 M⁻¹ s⁻¹. In the case of B7, the Kd is reported as 0.943 nM and the koff is reported as 0.000211 s⁻¹. B8 showed a Kd of 1.67 nM, a koff of 0.000421 s⁻¹ and a kon of 252000 M⁻¹ s⁻¹. B9 showed a Kd of 1.63 nM, a koff of 0.000432 s⁻¹ and a kon of 265000 M⁻¹ s⁻¹. B10 was tested, and the Kd was 1.5 nM and the koff was 0.000299 s⁻¹. With B11 the Kd was 1.75 nM, the koff was 0.000443 s⁻¹ and the kon was 253000 M⁻¹ s⁻¹. B12 gave a Kd of 1.11 nM and a koff of 0.000265 s⁻¹. B13 gave a Kd of 1.19 nM, a koff of 0.000314 s⁻¹ and a kon of 264000 M⁻¹ s⁻¹. Work on B14 yielded a Kd of 1.91 nM, a koff of 0.000477 s⁻¹ and a kon of 250000 M⁻¹ s⁻¹. B15 showed a Kd of 1.45 nM and a koff of 0.000294 s⁻¹. B16 showed a Kd of 1.15 nM, a koff of 0.000305 s⁻¹ and a kon of 266000 M⁻¹ s⁻¹. B17 showed a Kd of 1.25 nM, a koff of 0.0003 s⁻¹ and a kon of 240000 M⁻¹ s⁻¹. In the case of B18, the Kd is reported as 0.875 nM, the koff is reported as 0.000244 s⁻¹ and the kon is reported as 279000 M⁻¹ s⁻¹. In the case of B19, the Kd is reported as 1.3 nM, the koff is reported as 0.000258 s⁻¹ and the kon is reported as 199000 M⁻¹ s⁻¹. B20 gave a Kd of 0.815 nM, a koff of 0.000216 s⁻¹ and a kon of 265000 M⁻¹ s⁻¹. In the case of B21, the Kd is reported as 2.1 nM, the koff is reported as 0.000614 s⁻¹ and the kon is reported as 293000 M⁻¹ s⁻¹.

Each molecule was assayed against T5, native human TrkA expressed endogenously on SH-SY5Y cells (human, UniProt P04629 33-796) (assay: flow cytometry on SH-SY5Y cells, anti-human IgG Fc secondary, MFI, average of three experiments).
T5 construct: whole, on cells
T5 sequence (P04629 33-796): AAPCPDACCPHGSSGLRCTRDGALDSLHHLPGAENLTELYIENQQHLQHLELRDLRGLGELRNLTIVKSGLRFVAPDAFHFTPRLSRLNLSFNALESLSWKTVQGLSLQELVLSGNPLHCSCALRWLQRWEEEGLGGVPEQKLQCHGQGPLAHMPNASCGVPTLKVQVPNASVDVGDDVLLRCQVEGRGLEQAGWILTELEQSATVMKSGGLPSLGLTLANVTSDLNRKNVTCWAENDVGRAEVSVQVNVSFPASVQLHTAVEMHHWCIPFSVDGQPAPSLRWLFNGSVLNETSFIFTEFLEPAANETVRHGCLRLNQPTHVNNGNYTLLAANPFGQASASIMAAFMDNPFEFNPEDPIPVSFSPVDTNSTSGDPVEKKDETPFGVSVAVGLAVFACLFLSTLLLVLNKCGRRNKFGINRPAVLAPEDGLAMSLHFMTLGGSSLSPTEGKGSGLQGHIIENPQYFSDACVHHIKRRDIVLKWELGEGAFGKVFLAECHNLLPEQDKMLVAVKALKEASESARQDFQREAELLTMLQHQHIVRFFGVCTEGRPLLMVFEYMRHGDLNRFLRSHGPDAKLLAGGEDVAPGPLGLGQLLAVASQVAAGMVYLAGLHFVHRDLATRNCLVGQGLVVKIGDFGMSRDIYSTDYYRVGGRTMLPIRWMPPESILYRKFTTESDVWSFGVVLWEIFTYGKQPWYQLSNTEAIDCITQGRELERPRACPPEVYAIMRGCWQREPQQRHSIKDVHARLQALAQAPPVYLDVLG
For B1, the EC50 was 275 nM.

What follows are molecules tested against native rat TrkA on PC12 cells (rat, UniProt P35739 33-799) (assay: cell-based or functional assay).
Chain of native rat TrkA on PC12 cells (P35739 33-799): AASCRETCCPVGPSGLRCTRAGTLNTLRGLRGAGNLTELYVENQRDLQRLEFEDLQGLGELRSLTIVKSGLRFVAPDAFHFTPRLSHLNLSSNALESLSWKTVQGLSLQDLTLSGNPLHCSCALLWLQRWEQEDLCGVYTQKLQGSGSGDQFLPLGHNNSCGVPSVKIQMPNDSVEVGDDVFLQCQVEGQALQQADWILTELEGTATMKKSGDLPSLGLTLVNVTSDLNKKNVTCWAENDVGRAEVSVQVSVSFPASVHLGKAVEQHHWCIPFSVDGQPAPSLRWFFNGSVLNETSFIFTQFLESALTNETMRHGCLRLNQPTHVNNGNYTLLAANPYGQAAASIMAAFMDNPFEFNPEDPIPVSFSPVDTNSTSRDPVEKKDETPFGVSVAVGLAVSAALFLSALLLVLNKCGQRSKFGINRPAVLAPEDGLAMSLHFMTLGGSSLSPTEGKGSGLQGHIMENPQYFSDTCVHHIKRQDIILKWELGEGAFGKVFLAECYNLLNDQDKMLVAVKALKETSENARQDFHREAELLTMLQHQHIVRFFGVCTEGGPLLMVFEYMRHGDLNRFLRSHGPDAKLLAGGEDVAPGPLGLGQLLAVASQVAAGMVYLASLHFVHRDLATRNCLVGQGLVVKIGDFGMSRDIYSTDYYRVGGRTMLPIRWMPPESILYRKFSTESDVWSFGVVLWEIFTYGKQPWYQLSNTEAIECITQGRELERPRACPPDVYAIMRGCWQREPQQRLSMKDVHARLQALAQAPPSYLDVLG
Work on “mouse β-NGF (from UniProt P01139 122-241) (ligand)” yielded an Akt phosphorylation in PC12 cells, EC50 of 0.025 nM, an Erk phosphorylation in PC12 cells, EC50 of 0.025 nM and a TrkA receptor phosphorylation in PC12 cells (AlphaLISA p-TrkA Tyr674/675), EC50 of 0.129 nM. It also gave a neurite outgrowth in PC12 cells at 138 hours, EC50 of 0.0078 nM. With B2 the “Akt pathway activation (pEC50)” value was 9.12 pEC50, the “Erk pathway activation (pEC50)” value was 9.29 pEC50 and the “Neurite outgrowth (pEC50)” value was 10.1 pEC50. For B3, the “Akt pathway activation (pEC50)” value was 9.53 pEC50, the “Erk pathway activation (pEC50)” value was 10.2 pEC50 and the “Neurite outgrowth (pEC50)” value was 9.81 pEC50. For B4, the “Akt pathway activation (pEC50)” value was 9.03 pEC50, the “Erk pathway activation (pEC50)” value was 9.23 pEC50 and the “Neurite outgrowth (pEC50)” value was 10.1 pEC50. For B5, the “Akt pathway activation (pEC50)” value was 9.53 pEC50, the “Erk pathway activation (pEC50)” value was 9.54 pEC50 and the “Neurite outgrowth (pEC50)” value was 9.97 pEC50. For B6, the “Akt pathway activation (pEC50)” value was 9.2 pEC50, the “Erk pathway activation (pEC50)” value was 9.45 pEC50 and the “Neurite outgrowth (pEC50)” value was 10 pEC50. B7 was tested, and the “Akt pathway activation (pEC50)” value was 9.57 pEC50, the “Erk pathway activation (pEC50)” value was 9.78 pEC50 and the “Neurite outgrowth (pEC50)” value was 9.95 pEC50. With B8 the “Akt pathway activation (pEC50)” value was 8.97 pEC50, the “Erk pathway activation (pEC50)” value was 9.21 pEC50 and the “Neurite outgrowth (pEC50)” value was 10.2 pEC50. In the case of B9, the “Akt pathway activation (pEC50)” value is reported as 9.05 pEC50, the “Erk pathway activation (pEC50)” value is reported as 9.21 pEC50 and the “Neurite outgrowth (pEC50)” value is reported as 10 pEC50. In the case of B10, the “Akt pathway activation (pEC50)” value is reported as 9.68 pEC50, the “Erk pathway activation (pEC50)” value is reported as 9.89 pEC50 and the “Neurite outgrowth (pEC50)” value is reported as 10.1 pEC50. With B11 the “Akt pathway activation (pEC50)” value was 9.09 pEC50, the “Erk pathway activation (pEC50)” value was 9.14 pEC50 and the “Neurite outgrowth (pEC50)” value was 9.99 pEC50. With B12 the “Akt pathway activation (pEC50)” value was 9.25 pEC50, the “Erk pathway activation (pEC50)” value was 10.2 pEC50 and the “Neurite outgrowth (pEC50)” value was 10.2 pEC50. For B13, the “Akt pathway activation (pEC50)” value was 9.25 pEC50, the “Erk pathway activation (pEC50)” value was 9.11 pEC50 and the “Neurite outgrowth (pEC50)” value was 10.1 pEC50. B14 was tested, and the “Akt pathway activation (pEC50)” value was 9.07 pEC50, the “Erk pathway activation (pEC50)” value was 9.28 pEC50 and the “Neurite outgrowth (pEC50)” value was 9.96 pEC50. In the case of B15, the “Akt pathway activation (pEC50)” value is reported as 9.5 pEC50, the “Erk pathway activation (pEC50)” value is reported as 9.88 pEC50 and the “Neurite outgrowth (pEC50)” value is reported as 9.6 pEC50. Molecule B1 has an Akt phosphorylation in PC12 cells, EC50 of 0.501 nM, an Erk phosphorylation in PC12 cells, EC50 of 0.54 nM and a TrkA receptor phosphorylation in PC12 cells (AlphaLISA p-TrkA Tyr674/675), EC50 of 0.341 nM. The neurite outgrowth in PC12 cells at 138 hours, EC50 was 0.0858 nM. In the case of B16, the “Akt pathway activation (pEC50)” value is reported as 9 pEC50, the “Erk pathway activation (pEC50)” value is reported as 9.23 pEC50 and the “Neurite outgrowth (pEC50)” value is reported as 10.1 pEC50. B21 was tested, and the “Akt pathway activation (pEC50)” value was 8.67 pEC50, the “Erk pathway activation (pEC50)” value was 8.86 pEC50 and the “Neurite outgrowth (pEC50)” value was 9.79 pEC50.

Source: patent US20250122291A1 (CEPHALON, published 2025)
